The target of assay [1] is T1, human C-C motif chemokine receptor 8 (CCR8) (human, UniProt P51685 1-355). Briefly: cell-based or functional assay.
Assay [2] addresses T1, human C-C motif chemokine receptor 8 …. Kind of assay: cell-based or functional assay. This is another data set of the same source.
Assay [3] has the same target. Kind of assay: FACS (MFI PE) on HEK293 hCCR8 cells.
The target in assay [4] is T2, human CCR4 (human, UniProt P51679 1-360).
T2 construct: whole, on cells; also called hCCR4
T2 sequence (looked up): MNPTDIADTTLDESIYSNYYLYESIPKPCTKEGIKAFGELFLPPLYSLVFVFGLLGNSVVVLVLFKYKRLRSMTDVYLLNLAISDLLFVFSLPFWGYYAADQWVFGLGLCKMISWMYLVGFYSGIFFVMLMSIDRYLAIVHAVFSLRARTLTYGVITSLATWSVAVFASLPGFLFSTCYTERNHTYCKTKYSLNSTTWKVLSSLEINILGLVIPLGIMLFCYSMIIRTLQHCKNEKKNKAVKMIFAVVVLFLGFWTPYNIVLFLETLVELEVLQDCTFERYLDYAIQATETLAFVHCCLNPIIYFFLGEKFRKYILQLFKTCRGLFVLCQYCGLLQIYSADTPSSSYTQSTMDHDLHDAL
Briefly: FACS, CHO-K1 hCCR4 cells. On the procedure: (§1) Briefly, HEK293 hCCR8 cell line, CHO-K1 cyno CCR8 cell line or CHO-K1 hCCR4 cell line was first incubated with 5-fold serially diluted and 8 doses with the above 10 chimeric Abs and hlgG1 control starting from 100 nM at 4° C. for 30 mins. After washing by FACS buffer, PE Goat anti-Human IgG Fc Secondary Antibody (eBioscience™, Invitrogen) was added to each well and incubated at 4° C. for 30 mins. Samples were washed twice with FACS buffer. The mean florescence intensity (MFI) of PE was evaluated by MACSQuant Analyzer 16.
On the technique in general: In flow cytometry, cells or beads pass a laser one at a time.

For assay [5], the target named is T1, human C-C motif chemokine receptor 8 …. Briefly: cell-based or functional assay. The source holds these as a separate data set.
For assay [6] the target is unchanged. Briefly: cell-based or functional assay. This is another data set of the same source.
Assay [7] has the same target. Briefly: FACS (MFI-PE) on HEK293 hCCR8 cells. On the procedure:
as §1

In assay [8] the target is T3, cyno CCR8 (cynomolgus, UniProt G7NYJ2 1-355).
T3 construct: whole, on cells; also called cynomolgus CCR8 protein
Briefly: FACS (MFI-PE) on CHO-K1 cyno CCR8 cells; fitted value, the curve stays at the baseline. Here is the method: as §1

The target in assay [9] is T1, human C-C motif chemokine receptor 8 …. Briefly: cell-based or functional assay. The source holds these as a separate data set.
The target is the same in assay [10]. Kind of assay: FACS (MFI-PE) on CHO-K1 hCCR8 cells.
Assay [11] deals with T3, cyno CCR8. Kind of assay: FACS (MFI-PE) on CHO-K1 cyno CCR8 cells; fitted value far outside the range tested (up to 100 nM).
Assay [12] addresses T3, cyno CCR8. Kind of assay: FACS (MFI-PE) on CHO-K1 cyno CCR8 cells; fitted value, the curve hardly leaves the baseline.
Assay [13] has as its target T1, human C-C motif chemokine receptor 8 …. Briefly: cell-based or functional assay. This is another data set of the same source.
The target is the same in assay [14]. Briefly: cell-based or functional assay. The source holds these as a separate data set.
For assay [15] the target is unchanged. Briefly: cell-based or functional assay. The source holds these as a separate data set.
Assay [16] shares this target. Kind of assay: FACS (MFI-PE) on HEK293 hCCR8 cells. This is another data set of the same source.
The target of assay [17] is T3, cyno CCR8. Briefly: FACS (MFI-PE) on CHO-K1 cyno CCR8 cells. Here is the method: as §1
Assay [18] addresses T3, cyno CCR8. Briefly: FACS (MFI-PE) on CHO-K1 cyno CCR8 cells. This is another data set of the same source.

Like-named read-outs stand apart in the source and are kept apart here.

A word on the EC50: it is the midpoint of the concentration-response curve. The low end stands for higher potency in that assay, the high end for lower potency in that assay.

T3 sequence (G7NYJ2 entry or part of it): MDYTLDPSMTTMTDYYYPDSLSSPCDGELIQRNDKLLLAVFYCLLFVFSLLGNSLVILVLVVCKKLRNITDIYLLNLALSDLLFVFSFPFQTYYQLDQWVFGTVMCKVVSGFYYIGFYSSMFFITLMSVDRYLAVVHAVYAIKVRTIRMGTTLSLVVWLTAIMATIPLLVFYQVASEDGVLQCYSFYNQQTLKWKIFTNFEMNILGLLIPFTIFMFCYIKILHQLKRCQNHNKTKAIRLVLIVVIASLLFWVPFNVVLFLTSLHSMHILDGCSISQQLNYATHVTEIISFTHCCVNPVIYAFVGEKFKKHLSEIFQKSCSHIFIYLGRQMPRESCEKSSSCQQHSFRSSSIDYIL
T1 sequence (P51685 whole entry): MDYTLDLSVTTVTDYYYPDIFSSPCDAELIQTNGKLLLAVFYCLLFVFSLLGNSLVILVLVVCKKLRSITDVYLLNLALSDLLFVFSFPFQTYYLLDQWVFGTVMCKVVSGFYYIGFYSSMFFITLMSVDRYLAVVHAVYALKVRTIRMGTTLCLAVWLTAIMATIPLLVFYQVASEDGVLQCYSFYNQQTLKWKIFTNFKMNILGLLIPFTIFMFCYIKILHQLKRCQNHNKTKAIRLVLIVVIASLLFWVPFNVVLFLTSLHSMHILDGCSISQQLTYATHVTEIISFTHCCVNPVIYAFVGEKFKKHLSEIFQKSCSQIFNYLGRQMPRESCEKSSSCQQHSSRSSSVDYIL

B1: 4A19 (antibody, V domains shown)
VH: QVQLVQSGAEVKKPGASVKVSCKASGYTFTDSEMHWVRQATGQGLEWMGAIQPETGGTAYNQKFKARVTMTRDTSISTAYMELSSLRSEDTAVYYCARRRRNFDYWGQGTLVTVSS
VL: DIVMTQTPLSLSVTPGQPASISCRSSQSLFHSSGNTYLHWYLQKPGQPPQLLIYKVSNRFSGVPDRFSGSGSGTDFTLKISRVEAEDVGVYYCSQSTHVPFTFGQGTKLEIKR
B1: the “IC50, hCCL1-induced beta-arrestin recruitment (% stimulation), CHO-K1 hCCR8 cells” value in assay [1] turned out to be 1.68 nM. Also, the “IC50, hCCL1-induced Ca2+ flux (% stimulation), Chem-1 hCCR8 cells” value in [2] is 12.9 nM. Further, the EC50 in assay [3] was 0.21 nM.

B2: 163H9D5 (antibody, V domains shown)
VH: EVQLVESGGGLVQPKGSLKLSCAASGFSFNTYAMNWVRQAPGKGLKWVARIRTKSNNYATHYADSVKDRFTLSRDDSESMLYLQMNNLKTEDTAMYYCVGGGYGSSASNAMAYWGQGTSVTVSS
VL: DIVMTQAAPSVPVTPGESVSISCRSSKSLLHSNGNTYLYWFLQRPGQSPQLLIFRMSNLASGVPDRFSGSGSGTAFTLRISRVEAEDVGVYYCMQHLEYPFTFGSGTKLEIK
notes: tested as chimeric mAb
With B2, the binding result in [4] was “no binding (tested: 100 nM (highest concentration tested))”. For the same molecule, the “IC50, hCCL1-induced beta-arrestin recruitment (RLU), CHO-K1 hCCR8 cells” value in assay [5] worked out at 13.8 nM. In [6], the “IC50, hCCL1-induced Ca2+ flux (stimulation %), Chem-1 hCCR8 cells [lower graph]” value is 5.77 nM and the “IC50, hCCL1-induced Ca2+ flux (stimulation %), Chem-1 hCCR8 cells [upper graph]” value came out at 7.6 nM. Moreover, in assay [7], the concentration giving a half-maximal response (EC50) came out at 0.107 nM. Moreover, the EC50 in assay [8] is 29.9 nM.

B3: 200C9B9-C1 (antibody, V domains shown)
VH: EVQLVESGGGLVQPKGSLKLSCAASGFSFNTYVMNWVRQAPGKGLNWVARIRTKSNNYATFYVDSVKDRFTISRDDSENMLYLQMNNLKIEDTAIYYCVSGTITRLGAGLDYWGQGTSVTVSS
VL: DIVMTQAAPSVPVTPGESVSISCRSSKSLLHSQGNTYLYWFLQRPGQSPQLLIYRMSNLASGVPDRFSGSGSGTAFTLRISRVEAEDVGVYYCMQHLEYPFTFGGGTKLEIK
notes: also called 200C9B9 VH with 200C9B9 VL NG-QG
With B3, the “IC50, hCCL1-induced beta-arrestin recruitment (RLU), CHO-K1 hCCR8 cells” value in assay [9] was found to be 0.154 nM. The concentration for a half-maximal effect (EC50) is 0.399 nM in assay [10] and more than 100 nM in assay [11].

B4: 195H8D10-C1 (antibody, V domains shown)
VH: EVQLVGSGGGLVQPKGSLKLSCAASGFNFNTYVMNWVRQAPGKGLEWVARIRTKSNNYATYYADSVKDRFTISRDDSESKLYLQMNNLKTEDTAMYYCVSGTITRLGGGLDYWGQGTSVTVSS
VL: DIVMTQAAPSVPVTPGESVSISCRSSKRLLHSQGNTYLYWFLQRPGQSPQLLIYRMSNLASGVPDRFSGSGSGTAFTLRISRVEAEDVGVYYCMQHLEYPFTFGGGTKLEIK
notes: also called 195H8D10 VH with 195H8D10 VL NG-QG
In the case of B4, the EC50 turned out to be 0.29 nM in [10] and 68.1 nM in [12].

B5: 200C9B9 (antibody, V domains shown)
VH: EVQLVESGGGLVQPKGSLKLSCAASGFSFNTYVMNWVRQAPGKGLNWVARIRTKSNNYATFYVDSVKDRFTISRDDSENMLYLQMNNLKIEDTAIYYCVSGTITRLGAGLDYWGQGTSVTVSS
VL: DIVMTQAAPSVPVTPGESVSISCRSSKSLLHSNGNTYLYWFLQRPGQSPQLLIYRMSNLASGVPDRFSGSGSGTAFTLRISRVEAEDVGVYYCMQHLEYPFTFGGGTKLEIK
notes: tested as chimeric mAb; also called 200C9B9-C
With B5, the binding result in [4] was “no binding (tested: 100 nM (highest concentration tested))”. Further, in assay [13], the “IC50, hCCL1-induced migration of BaF3 hCCR8 cells (RLU) [cont'd) C]” value was determined as 0.798 nM. The figures for the “IC50, hCCL1-induced beta-arrestin recruitment (RLU), CHO-K1 hCCR8 cells” value in [5], in assay [9] and in [14] were 0.771 nM, 0.143 nM and 3.02 nM, respectively. Moreover, the “IC50, hCCL1-induced Ca2+ flux (stimulation %), Chem-1 hCCR8 cells [lower graph]” value in assay [6] turned out to be 1.89 nM. Also, in assay [15], the “IC50, hCCL1-induced Ca2+ flux (stimulation %), Chem-1 hCCR8 cells” value came out at 0.55 nM. Besides, the half-maximal effective concentration (EC50) in [7] worked out at 0.0741 nM; in [10], 0.132 nM; in assay [16] it was 0.05 nM; in assay [17], 3.16 nM; in assay [18], 1.53 nM.

B6: Hu200C9B9-7 NG-NA (antibody, V domains shown)
VH: EVQLVESGGGLVQPGGSLRLSCAASGFSFNTYVMNWVRQAPGKGLEWVARIRTKSNNYATFYVDSVKDRFTISRDDSKNSLYLQMNSLKTEDTAVYYCVSGTITRLGAGLDYWGQGTLVTVSS
VL: DIVMTQSPLSLPVTPGEPASISCRSSKSLLHSNANTYLYWYLQKPGQSPQLLIYRMSNLASGVPDRFSGSGSGTAFTLKISRVEAEDVGVYYCMQHLEYPFTFGGGTKLEIK
notes: humanized, PTM site removed
Turning to B6, in assay [14], the “IC50 (read off the curve), hCCL1-induced beta-arrestin recruitment (RLU), CHO-K1 hCCR8 cells” value is approximately 2 nM. In addition, in assay [15], the “IC50, hCCL1-induced Ca2+ flux (stimulation %), Chem-1 hCCR8 cells” value came to 0.36 nM. The “IC50, hCCL1-induced beta-arrestin recruitment (% stimulation), CHO-K1 hCCR8 cells” value in assay [1] was 1.58 nM. The “IC50, hCCL1-induced Ca2+ flux (% stimulation), Chem-1 hCCR8 cells” value in assay [2] turned out to be 4.33 nM. Besides, the concentration for a half-maximal effect (EC50) in assay [16] amounted to 0.069 nM; in [3], 0.15 nM.

Values taken from patent US20250368744A1 (CONCEPT TO MEDICINE BIOTECH, published 2025).
